The results in this text go back to patent US20150344580A1 (MSM PROTEIN TECHNOLOGIES, published 2015).

For one experiment, the target named is T1, human CXCR2 (human, UniProt P25025 1-360).
T1 construct: whole, on cells; Cf2th cells
T1 sequence (looked up): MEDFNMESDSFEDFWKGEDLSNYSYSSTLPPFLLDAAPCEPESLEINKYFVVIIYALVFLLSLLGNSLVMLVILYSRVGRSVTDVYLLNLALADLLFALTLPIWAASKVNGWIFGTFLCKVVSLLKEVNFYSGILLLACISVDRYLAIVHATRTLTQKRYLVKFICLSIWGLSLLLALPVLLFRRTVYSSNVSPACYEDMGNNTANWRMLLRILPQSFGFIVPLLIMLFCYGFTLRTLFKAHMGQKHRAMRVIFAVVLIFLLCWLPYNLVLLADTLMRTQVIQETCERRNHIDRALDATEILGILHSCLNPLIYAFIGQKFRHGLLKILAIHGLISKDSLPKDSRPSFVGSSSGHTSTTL
The experiment in a line: FACS, Cf2th-human CXCR2 cells. How it is done: In more details, the cell staining procedure was: […] cell suspension in 10 μl FACS buffer (1×PBS, 2.0% FBS, 0.2% sodium azide) was mixed with 10 μl of 200 nM the corresponding anti-CCR7 MAB and incubated on ice for 30 min. Washing step—after the incubation 150 μl of FACS buffer was added to the cell sample, the samples were mixed gently by up-down pipetting the cell suspension. Then the samples were centrifuged at 1100 rpm for 5 minutes, and supernatants were removed. Washing step was repeated ones. Then 10 μl of anti-human PE-(Fab)2 form Jackson Immuno Research Lab. #709-116-098 diluted 40 times in FACS buffer were added to the cells and the cells were re-suspended by up-down pipetting. After 20 min. incubation on ice in dark the washing step was repeated twice. The washed cells were mixed with 100 μl of FIX buffer (0.5% Paraformaldehyde solution in PBS). Fixed samples were stored in dark on ice and analyzed by FACS on Guava PCA-96 flow cytometer. The fluorescent signals collected from individual cells were obtained using fluorescence Activated Cell Sorter (FACS).

Experiment [1] concerns the target T2, human chemokine receptor CCR7 (human, UniProt P32248 25-378).
T2 construct: On CHO, BHK, R1610 and Chem-1 transfectants and, natively, on human PBMC and the leukemia lines JVM-13 and CLL-AAT; also called human CCR7; hCCR7
T2 sequence: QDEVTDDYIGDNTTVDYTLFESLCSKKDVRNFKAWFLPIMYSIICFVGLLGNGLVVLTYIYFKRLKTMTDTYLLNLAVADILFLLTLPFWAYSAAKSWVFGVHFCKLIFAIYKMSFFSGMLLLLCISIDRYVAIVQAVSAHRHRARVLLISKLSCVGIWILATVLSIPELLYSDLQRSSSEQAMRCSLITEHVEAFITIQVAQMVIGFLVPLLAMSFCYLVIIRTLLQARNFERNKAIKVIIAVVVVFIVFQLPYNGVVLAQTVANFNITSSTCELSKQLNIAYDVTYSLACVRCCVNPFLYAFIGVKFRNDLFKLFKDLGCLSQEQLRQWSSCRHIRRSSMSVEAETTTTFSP
The experiment can be described thus: flow cytometry titration, BHK cells expressing human CCR7. How it is done:
(§1) The affinity of IgG1 antibodies to human CCR7 was evaluated by measuring mean fluorescence value (MFI) of cells expressing CCR7 in the presence of varying concentration of antibody in question, upon staining of bound to the cells antibodies with a commercial anti-human antibody-PE conjugate. The data of such experiments are depicted in FIGS. 9, 10, and 11. In these experiments binding of some antibodies to parental cells or cells expressing mouse CCR7 was also quantitatively characterized by obtaining EC₅₀ value (a concentration of IgG1 at which half-maximum MFI is achieved) for each curve using the SoftMaxPro5 program.

In experiment [2] the target is T2, human chemokine receptor CCR7. The experiment can be described thus: cell-based or functional assay.
Experiment [3] has the same target. The experiment can be described thus: flow cytometry titration, CHO-human CCR7 cells. How it is done:
as §1
A general note: In flow cytometry, cells or beads pass a laser one at a time.

Experiment [4] deals with T3, mouse CCR7 (mouse, UniProt P47774 25-378).
T3 construct: whole, on cells; On CHO-mouse CCR7 cells and on mouse splenocytes; also called mouse CCR7 ortholog
T3 sequence (looked up): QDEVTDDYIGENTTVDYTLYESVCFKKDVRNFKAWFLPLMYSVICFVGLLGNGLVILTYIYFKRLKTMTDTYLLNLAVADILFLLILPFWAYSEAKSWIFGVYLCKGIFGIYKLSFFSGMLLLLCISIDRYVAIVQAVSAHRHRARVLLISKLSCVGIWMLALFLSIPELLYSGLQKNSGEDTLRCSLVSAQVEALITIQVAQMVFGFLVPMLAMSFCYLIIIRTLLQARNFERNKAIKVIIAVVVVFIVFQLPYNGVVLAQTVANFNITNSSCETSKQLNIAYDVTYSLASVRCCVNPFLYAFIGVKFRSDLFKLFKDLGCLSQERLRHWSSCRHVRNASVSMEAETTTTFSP
The experiment can be described thus: flow cytometry titration, CHO-mouse CCR7 cells. How it is done:
as §1

Experiment [5] concerns the target T2, human chemokine receptor CCR7. The experiment in a line: flow cytometry, human CCR7 cells (summary table).
In experiment [6] the target is T3, mouse CCR7. The experiment can be described thus: flow cytometry, mouse CCR7 cells (summary table).
The target of experiment [7] is T3, mouse CCR7. The experiment in a line: flow cytometry titration, CHO cells expressing mouse CCR7.
In experiment [8] the target is T2, human chemokine receptor CCR7. The experiment can be described thus: flow cytometry titration, human CCR7-expressing CHO cells.
Experiment [9] has the same target. The experiment can be described thus: flow cytometry titration, CCR7-expressing CHO cells; antibody not heat-treated.
Experiment [10] shares this target. The experiment can be described thus: flow cytometry titration, CCR7-expressing CHO cells; antibody kept 12 h at 40 C.
For experiment [11] the target is unchanged. The experiment can be described thus: flow cytometry titration, cells expressing CCR7; before storage (unit from the axis, nM).
Experiment [12] has the same target. The experiment can be described thus: flow cytometry titration, cells expressing CCR7; after 4.5 months at 4 C (unit from the axis, nM).

B1: MSM-R710 (fully human anti-human CCR7 antibody, IgG1) (antibody, V domains shown)
VH: EVQLLESGGGLVQPGGSLRLSCAASGFTFSNYTMHWVRQAPGKGLEWVSGIGPRSGRTYYADSVKGRFTISRDNSKNTLYLQMNSLRAEDTAVYYCARSYAYQYRGFDYWGQGTLVTVSS
VL: EIVLTQSPGTLSLSPGERATLSCRASQSVSSSYLAWYQQKPGQAPRLLIYGASSRATGIPDRFSGSGSGTDFTLTISRLEPEDFAVYYCQSSVTFGQGTKVEIKR
notes: IgG1 format
The EC50 is the concentration needed to bring the measured effect to its halfway point. For B1, the binding result with human CXCR2 is given as “no binding (tested: 200 nM MAB mixed 1:1 with cells)”. In [1], this molecule displayed an EC50 of 3.8 nM.

B2: MSM-R735 (fully human anti-human CCR7 antibody, IgG1) (antibody)
heavy: not shown
light: EIVLTQSPGTLSLSPGERATLSCRASQSVSSSYLAWYQQKPGQAPRLLIYGASSRATGIPDRFSGSGSGTDFTLTISRLEPEDFAVYYCQQGSPVTFGQGTKVEIKRTVAAPSVFIFPPSDEQLKSGTASVVCLLNNFYPREAKVQWKVDNALQSGNSQESVTEQDSKDSTYSLSSTLTLSKADYEKHKVYACEVTHQGLSSPVTKSFNRGEC
notes: IgG1 format; also called R735 Human IgG1
Take B2: in experiment [2], the “EC50 of killing of JVM-13 cells with Fab-ZAP” value was 19 nM. Besides, the “IC50 of decrease in cell viability with human Fab-ZAP, JVM-13 cells” value in experiment [2] was roughly 1.2 nM. Besides, in [2], the “IC50 of inhibition of Ca-flux induced by 15 nM CCL19, Chem-1 CCR7 human cells” value was 67 nM. Also, in the experiment with human CXCR2, the binding result is listed as “no binding (tested: 200 nM MAB mixed 1:1 with cells)”. Moreover, the concentration for a half-maximal effect (EC50) in experiment [3] is 0.7 nM; with mouse CCR7 [4] it was roughly 642 nM; in experiment [5], 4 nM; in the experiment with mouse CCR7 [6], 1 nM; with mouse CCR7 [7], 2.4 nM; in [8], 3.7 nM. The half-maximal effective concentration (EC50) in experiment [9] amounted to 3 nM; in experiment [10], 3.1 nM; in experiment [11] it was 2.47 nM; in experiment [12], 2.06 nM.
